Data from patent publication US20150132821, “Systems and Methods for Improving Nuclease Specificity and Activity” (Georgia Tech Research Corporation, published 2015).

T1: S-02 (S2) NK-TALEN (synthetic, UniProt Q56830 SEQ:41-735)
T1 chain: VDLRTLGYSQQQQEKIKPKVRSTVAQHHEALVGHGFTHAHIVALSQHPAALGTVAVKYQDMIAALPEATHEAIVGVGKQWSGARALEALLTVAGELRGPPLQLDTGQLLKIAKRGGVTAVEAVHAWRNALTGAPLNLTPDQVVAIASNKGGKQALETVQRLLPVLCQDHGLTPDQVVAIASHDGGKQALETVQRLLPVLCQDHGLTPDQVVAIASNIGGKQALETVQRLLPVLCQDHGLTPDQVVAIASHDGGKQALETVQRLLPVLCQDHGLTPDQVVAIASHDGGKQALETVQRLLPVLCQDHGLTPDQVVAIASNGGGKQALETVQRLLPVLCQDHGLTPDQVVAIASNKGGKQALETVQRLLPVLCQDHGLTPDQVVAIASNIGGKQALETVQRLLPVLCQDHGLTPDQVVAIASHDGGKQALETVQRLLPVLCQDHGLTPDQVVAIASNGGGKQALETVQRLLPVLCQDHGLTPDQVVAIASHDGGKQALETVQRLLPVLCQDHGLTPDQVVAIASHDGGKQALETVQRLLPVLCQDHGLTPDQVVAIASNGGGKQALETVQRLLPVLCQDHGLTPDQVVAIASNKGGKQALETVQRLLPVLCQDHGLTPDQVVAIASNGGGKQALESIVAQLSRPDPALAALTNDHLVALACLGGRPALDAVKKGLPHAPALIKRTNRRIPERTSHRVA

T2: S-07 (S7) NK-TALEN (synthetic, UniProt B2SU53 SEQ:41-1041)
T2 chain: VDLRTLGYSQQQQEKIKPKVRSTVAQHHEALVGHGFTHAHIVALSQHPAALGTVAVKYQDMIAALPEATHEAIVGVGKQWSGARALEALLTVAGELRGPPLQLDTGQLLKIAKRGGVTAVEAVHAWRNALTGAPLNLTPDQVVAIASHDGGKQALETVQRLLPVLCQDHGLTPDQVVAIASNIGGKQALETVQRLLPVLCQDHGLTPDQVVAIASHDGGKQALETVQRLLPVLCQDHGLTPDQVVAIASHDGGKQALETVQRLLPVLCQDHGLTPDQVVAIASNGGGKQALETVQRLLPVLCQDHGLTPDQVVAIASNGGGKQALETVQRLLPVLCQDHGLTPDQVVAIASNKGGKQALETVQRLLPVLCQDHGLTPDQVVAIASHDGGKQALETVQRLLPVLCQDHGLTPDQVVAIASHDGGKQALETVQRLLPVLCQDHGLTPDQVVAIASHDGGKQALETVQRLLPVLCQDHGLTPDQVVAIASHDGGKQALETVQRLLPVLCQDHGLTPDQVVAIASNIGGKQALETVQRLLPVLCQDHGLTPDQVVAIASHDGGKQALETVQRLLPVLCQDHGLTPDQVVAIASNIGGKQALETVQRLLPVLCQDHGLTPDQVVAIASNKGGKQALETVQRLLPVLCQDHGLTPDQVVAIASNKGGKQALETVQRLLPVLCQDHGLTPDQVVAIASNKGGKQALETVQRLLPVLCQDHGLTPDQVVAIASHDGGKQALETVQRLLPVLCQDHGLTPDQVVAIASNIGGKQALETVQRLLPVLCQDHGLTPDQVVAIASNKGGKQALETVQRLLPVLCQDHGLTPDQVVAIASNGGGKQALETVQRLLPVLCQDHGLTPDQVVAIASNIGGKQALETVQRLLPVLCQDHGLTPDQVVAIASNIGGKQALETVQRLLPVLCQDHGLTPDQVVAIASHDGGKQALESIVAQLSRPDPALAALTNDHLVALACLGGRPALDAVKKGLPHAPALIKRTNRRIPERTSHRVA


Columns and labels:
[1] = target: T1, S-02 (S2) NK-TALEN; assay: cell_activity; monomer SSA assay; conditions: tags: 3xFLAG, NLS, FokI
Experimental: (§1) HEK293T cells (ATCC) were cultured in Dulbecco's Modified Eagle Medium (Sigma) supplemented with 10% FBS and 2 mM L-Glutamine. Cells were seeded 80,000 per well of a 24-well plate. After 4 h, cells were transfected with 200 ng of the TALEN plasmid (or 100 ng of each TALEN for hetero-dimeric pairs) and 10 ng of the corresponding SSA reporter plasmid using calcium phosphate transfection. Three control transfections were included: 1) 200 ng of an empty TALEN backbone and 10 ng of an SSA reporter plasmid, 2) 200 ng of an empty TALEN backbone and 10 ng of a pEGFP plasmid, and 3) 100 ng of each GFP-ZFN and 10 ng of an SSA reporter plasmid. Cells were harvested 48 h after transfection. The percentages of pEGFP-transfected samples expressing GFP were determined using an Accuri C6 flow cytometer, as an indication of transfection efficiency. Genomic DNA was isolated using QuickExtract DNA extraction solution (Epicentre) as described20. Sample were PCR amplified for 35 cycles (95° C., 30 s; 60° C., 30 s; 72° C., 60 s) in a 50 μl reaction that contains 2 μl of the extracted DNA, 2.5 μl of each 10 μM target region amplification primer (SSA-Cell-F4, 5′-[…] (SEQ ID NO: 183); SSA-Cell-R4, 5′-[…] (SEQ ID NO: 184)), and 25 μl of GoTaq green master mix (Promega). PCR reactions were then separated on 2% agarose gels and the percentages of SSA-repaired products were quantified using ImageJ.

[2] = target: T2, S-07 (S7) NK-TALEN; assay: cell_activity; monomer SSA assay; conditions: tags: 3xFLAG, NLS, FokI
Experimental: as §1

Row | Binder | activity [1] [% SSA] | activity [2] [% SSA]
1 | S-02 half-site (dsDNA) DNA 1: GCACCTGACTCCTGT DNA 2: ACAGGAGTCAGGTGC | 23 | 
2 | S-07 half-site (dsDNA) DNA 1: CACCTTGCCCCACAGGGCAGTAAC DNA 2: GTTACTGCCCTGTGGGGCAAGGTG |  | 7.5
